From publication doi:10.1101/2020.06.22.20137695

Experiments:
[1] = target: MERS-CoV spike protein, recombinant soluble ectodomain trimer (MERS-CoV) (UniProt K9N5Q8); test: SEC
[2] = target: SARS-CoV spike protein, recombinant soluble ectodomain trimer (SARS-CoV) (UniProt P59594); test: SEC

| Substance | stoichiometry N [1] | stoichiometry N [2] |
| --- | --- | --- |
| MERS-CoV spike protein, recombinant soluble ectodomain trimer (from UniProt K9N5Q8 18-1296) (domain or fragment) | 3 |  |
| SARS-CoV spike protein, recombinant soluble ectodomain trimer (from UniProt P59594 14-1195) (domain or fragment) |  | 3 |
